Each block holds one molecule with its values, some of them ahead of it.
Assays:
[1] = system: IGHMBP2;ABT1 (Homo sapiens;Mus musculus); experiment: MST; settings: MST: 100 nM NT-647-labeled IGHMBP2 (+/- 100 nM ABT1), RNA titrated from 1 uM (single) or 500 nM each (two RNAs), buffer, salt, pH and temperature not stated. …
[2] = molecular target: T1, immunoglobulin mu DNA binding protein 2 (IGHMBP2), human, full length, thioredoxin-6xHis fusion from pET32b (human, UniProt P38935 1-993, RED-Tris-NTA (NT-647) fluorescent label in the MST); experiment: MST; IGHMBP2 RED-Tris-NTA labelled, constant 100 nM; partner titrated (1 μM to 1.53 × 10^5 μM as printed); fit to a quadratic equation, MO.Affinity Analysis; settings: both partners purified
T1 construct: IGHMBP2, human, full-length cDNA synthesized (GenScript), cloned into pET32b; 110 kDa IGHMBP2 + ~14 kDa thioredoxin-6xHis, predicted ~124 kDa; pET32b may add further vector-coded residues (S-tag, linkers) between the tags and the protein; also called pET32b-IGHMBP2; pET32-IGHMBP2; source: bacterial cell lysate in the immunoprecipitation
T1 sequence (looked up): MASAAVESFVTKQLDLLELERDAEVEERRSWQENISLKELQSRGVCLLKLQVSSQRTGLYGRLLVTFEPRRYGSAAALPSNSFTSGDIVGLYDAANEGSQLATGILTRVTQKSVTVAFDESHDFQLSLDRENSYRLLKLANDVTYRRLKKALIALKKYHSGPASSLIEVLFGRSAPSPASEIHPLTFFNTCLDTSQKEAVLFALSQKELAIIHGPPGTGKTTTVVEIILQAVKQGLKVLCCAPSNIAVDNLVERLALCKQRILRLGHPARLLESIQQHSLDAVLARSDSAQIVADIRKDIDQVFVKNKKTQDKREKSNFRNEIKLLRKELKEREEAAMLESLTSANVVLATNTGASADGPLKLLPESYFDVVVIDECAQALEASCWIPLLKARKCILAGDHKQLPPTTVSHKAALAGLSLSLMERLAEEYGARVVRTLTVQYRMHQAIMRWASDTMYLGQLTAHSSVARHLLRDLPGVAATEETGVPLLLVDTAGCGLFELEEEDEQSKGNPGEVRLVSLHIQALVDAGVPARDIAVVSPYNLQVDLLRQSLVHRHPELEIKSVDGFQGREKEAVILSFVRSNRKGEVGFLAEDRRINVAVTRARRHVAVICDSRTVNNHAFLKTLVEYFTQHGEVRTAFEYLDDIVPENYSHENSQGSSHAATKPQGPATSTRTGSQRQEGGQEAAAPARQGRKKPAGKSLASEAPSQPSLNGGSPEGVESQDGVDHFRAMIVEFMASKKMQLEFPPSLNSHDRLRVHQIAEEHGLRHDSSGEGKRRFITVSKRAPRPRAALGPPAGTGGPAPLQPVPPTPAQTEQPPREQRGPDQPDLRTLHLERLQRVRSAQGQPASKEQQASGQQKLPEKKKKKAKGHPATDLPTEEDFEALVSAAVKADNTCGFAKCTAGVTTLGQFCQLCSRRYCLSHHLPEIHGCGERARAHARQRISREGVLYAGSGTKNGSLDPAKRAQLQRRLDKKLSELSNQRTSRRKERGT

[3] = molecular target: T1, immunoglobulin mu DNA binding protein 2 …; experiment: not stated; stoichiometry of ABT1 to IGHMBP2, Supplemental Figure 1; told in the paragraph on DLS, method not given; settings: both partners purified
[4] = molecular target: T1, immunoglobulin mu DNA binding protein 2 …; experiment: cell-based or functional assay

Molecule: 5' ETS RNA + U3 snoRNA (annealed)
Kd ([1]; 100 nM IGHMBP2 + 100 nM ABT1, RNAs from 500 nM each): 28 nM

Molecule: 5' ETS RNA (47S pre-rRNA)
Kd [1]: > 697 nM

Molecule: U3 snoRNA
Kd [1]: 35 nM

Kd [2]: ~52 nM
stoichiometry N [3]: ~1
ATPase activity of IGHMBP2 (100 nM) with increasing ABT1 up to 120 nM (malachite green, free phosphate), fold increase over IGHMBP2 alone [4]: 1.96 fold
helicase activity of IGHMBP2 (100 nM) with increasing ABT1 up to 120 nM (Cy3-labelled DNA substrate), fold increase over IGHMBP2 alone [4]: 1.41 fold
nucleic acid unwinding rate of TP31-18mer duplex, 100 nM IGHMBP2 + 100 nM ABT1, 1-7 min (IGHMBP2 alone 1.141/min; printed as a 1.42-fold increase) [4]: 5.96 min⁻¹
rate of DNA substrate unwinding/nM protein, 100 nM IGHMBP2 with ABT1 20-100 nM, 7 min (IGHMBP2 alone 0.005/min; printed as 1.84-fold increased activity) [4]: 0.01 min⁻¹
B1: activator of basal transcription 1 (ABT1), mouse, full length, GST fusion from pGEX-6P1 (natural protein, UniProt Q9QYL7 1-269, looked up)
chain: MVKAGELVEQQKAAMEEEANAEAAEDQEEPEDTACSSSSKKKKKVVPGIVYLGHVPPRFRPLHVRNLLSAYGEVGRVFFQAEDHFVKRKKKAAAAAGGKKGAKYSKDYTEGWVEFRDKRVAKRVAASLHNTPMGARKRSPFRYDLWNLKYLHRFTWSHLSEHLAFERQVRRQRLRAEVAQAKRETDFYLRNVEQGQHFLAADGDATRPNSSWTFTQRPTEQEFRARKAARPGGRERARLANVEDQARSNRGLLAKIFGAPLPAESKEKP
notes: ABT1, mouse, full-length cDNA synthesized (GenScript), cloned into pGEX6P1; 31 kDa ABT1 + ~26 kDa GST, predicted ~57 kDa; Mouse ABT1 was tested against human IGHMBP2; No cleavage of GST is described; also called GST-ABT1; pGEX-ABT1; source: E. coli (BL21 and Rosetta strains used), purified on GST beads, eluted with reduced glutathione; bacterial cell lysate in the immunoprecipitation
